Data: patent US20080267976A1
pIC50: −log10 of the molar value.

Columns and labels:
[1] = target: V158 FcγRIIIa (UniProt P08637); test: competition AlphaScreen
[2] = target: V158 FcγRIIIa (UniProt P08637); test: competition AlphaScreen; second row

V158 FcγRIIIa, sequence (P08637 17-208 F176V): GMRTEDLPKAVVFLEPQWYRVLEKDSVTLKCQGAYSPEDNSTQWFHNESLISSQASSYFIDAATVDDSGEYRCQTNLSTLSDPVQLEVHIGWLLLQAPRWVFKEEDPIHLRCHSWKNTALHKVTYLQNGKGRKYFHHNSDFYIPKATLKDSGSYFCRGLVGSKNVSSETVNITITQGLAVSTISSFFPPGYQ

| pIC50 [1] | pIC50 [2] | Substance |
| --- | --- | --- |
| 8.29 | 9.27 | S239D/I332E H3.69_L3.71 AC10 IgG1 |
| 7.28 | – | S239D/I332E/A330Y H3.69_V2_L3.71 AC10 IgG(1/2) ELLGG |
| 8.40 | – | S239D/I332E/A330Y/K326E H3.69_V2_L3.71 AC10 IgG(1/2) ELLGG |
| 9.05 | – | S239D/I332E/H268E H3.69_V2_L3.71 AC10 IgG(1/2) ELLGG |
| 7.97 | – | S239D/I332E/K246H/S324I H3.69_V2_L3.71 AC10 IgG(1/2) ELLGG |
| 8.24 | – | S239D/I332E/K246H/T260H H3.69_V2_L3.71 AC10 IgG(1/2) ELLGG |
| 8.28 | – | S239D/I332E/K326T H3.69_V2_L3.71 AC10 IgG(1/2) ELLGG |
| 8.89 | – | S239D/I332E/S298A H3.69_V2_L3.71 AC10 IgG(1/2) ELLGG |
| 8.05 | – | S239D/I332E/S324G H3.69_V2_L3.71 AC10 IgG(1/2) ELLGG |
